{"source": "paper PMC2250751", "key": {"I113F SOD1 (human) [1]": {"target": "I113F SOD1 (human) (UniProt P00441)", "assay": "SEC; zinc-reconstituted form; gel filtration chromatography; 100 µM (as dimer), 20 mM phosphate pH 7; no larger species also after more than a month at 37°C"}, "I113F SOD1 (human) [2]": {"target": "I113F SOD1 (human) (UniProt P00441)", "assay": "SEC; metal-free (apo) form at time zero, before incubation; gel filtration chromatography"}, "I113T SOD1 (human) [3]": {"target": "I113T SOD1 (human) (UniProt P00441)", "assay": "SEC; zinc-reconstituted form; gel filtration chromatography; 100 µM (as dimer), 20 mM phosphate pH 7; no larger species also after more than a month at 37°C"}, "I113T SOD1 (human) [4]": {"target": "I113T SOD1 (human) (UniProt P00441)", "assay": "SEC; metal-free (apo) form at time zero, before incubation; gel filtration chromatography"}, "L144F SOD1 (human) [5]": {"target": "L144F SOD1 (human) (UniProt P00441)", "assay": "SEC; zinc-reconstituted form; gel filtration chromatography; 100 µM (as dimer), 20 mM phosphate pH 7; no larger species also after more than a month at 37°C"}, "L144F SOD1 (human) [6]": {"target": "L144F SOD1 (human) (UniProt P00441)", "assay": "SEC; metal-free (apo) form at time zero, before incubation; gel filtration chromatography"}, "T54R SOD1 (human) [7]": {"target": "T54R SOD1 (human) (UniProt P00441)", "assay": "SEC; zinc-reconstituted form; gel filtration chromatography; 100 µM (as dimer), 20 mM phosphate pH 7; no larger species also after more than a month at 37°C"}, "T54R SOD1 (human) [8]": {"target": "T54R SOD1 (human) (UniProt P00441)", "assay": "SEC; metal-free (apo) form at time zero, before incubation; gel filtration chromatography"}, "G93D SOD1 (human) [9]": {"target": "G93D SOD1 (human) (UniProt P00441)", "assay": "SEC; zinc-reconstituted form; gel filtration chromatography; 100 µM (as dimer), 20 mM phosphate pH 7; no larger species also after more than a month at 37°C"}, "G93D SOD1 (human) [10]": {"target": "G93D SOD1 (human) (UniProt P00441)", "assay": "SEC; metal-free (apo) form at time zero, before incubation; gel filtration chromatography"}, "I35T SOD1 (human) [11]": {"target": "I35T SOD1 (human) (UniProt P00441)", "assay": "SEC; zinc-reconstituted form; gel filtration chromatography; 100 µM (as dimer), 20 mM phosphate pH 7; no larger species also after more than a month at 37°C"}, "I35T SOD1 (human) [12]": {"target": "I35T SOD1 (human) (UniProt P00441)", "assay": "SEC; metal-free (apo) form at time zero, before incubation; gel filtration chromatography"}, "V87M SOD1 (human) [13]": {"target": "V87M SOD1 (human) (UniProt P00441)", "assay": "SEC; zinc-reconstituted form; gel filtration chromatography; 100 µM (as dimer), 20 mM phosphate pH 7; no larger species also after more than a month at 37°C"}, "V87M SOD1 (human) [14]": {"target": "V87M SOD1 (human) (UniProt P00441)", "assay": "SEC; metal-free (apo) form at time zero, before incubation; gel filtration chromatography"}, "D90A SOD1 (human) [15]": {"target": "D90A SOD1 (human) (UniProt P00441)", "assay": "SEC; zinc-reconstituted form; gel filtration chromatography; 100 µM (as dimer), 20 mM phosphate pH 7; no larger species also after more than a month at 37°C"}, "D90A SOD1 (human) [16]": {"target": "D90A SOD1 (human) (UniProt P00441)", "assay": "SEC; metal-free (apo) form at time zero, before incubation; gel filtration chromatography"}, "G93A SOD1 (human) [17]": {"target": "G93A SOD1 (human) (UniProt P00441)", "assay": "SEC; zinc-reconstituted form; gel filtration chromatography; 100 µM (as dimer), 20 mM phosphate pH 7; no larger species also after more than a month at 37°C"}, "G93A SOD1 (human) [18]": {"target": "G93A SOD1 (human) (UniProt P00441)", "assay": "SEC; metal-free (apo) form at time zero, before incubation; gel filtration chromatography"}, "V97M SOD1 (human) [19]": {"target": "V97M SOD1 (human) (UniProt P00441)", "assay": "SEC; zinc-reconstituted form; gel filtration chromatography; 100 µM (as dimer), 20 mM phosphate pH 7; no larger species also after more than a month at 37°C"}, "V97M SOD1 (human) [20]": {"target": "V97M SOD1 (human) (UniProt P00441)", "assay": "SEC; metal-free (apo) form at time zero, before incubation; gel filtration chromatography"}, "L67V SOD1 (human) [21]": {"target": "L67V SOD1 (human) (UniProt P00441)", "assay": "SEC; zinc-reconstituted form; gel filtration chromatography; 100 µM (as dimer), 20 mM phosphate pH 7; no larger species also after more than a month at 37°C"}, "L67V SOD1 (human) [22]": {"target": "L67V SOD1 (human) (UniProt P00441)", "assay": "SEC; metal-free (apo) form at time zero, before incubation; gel filtration chromatography"}}, "data": [{"substance": "I113F SOD1 (from UniProt P00441 8-154) (enzyme)", "values": [{"measurement": "stoichiometry N", "setting": "I113F SOD1 (human) [1]", "result": 2}, {"measurement": "stoichiometry N", "setting": "I113F SOD1 (human) [2]", "result": 2}]}, {"substance": "I113T SOD1 (from UniProt P00441 8-154) (enzyme)", "values": [{"measurement": "stoichiometry N", "setting": "I113T SOD1 (human) [3]", "result": 2}, {"measurement": "stoichiometry N", "setting": "I113T SOD1 (human) [4]", "result": 2}]}, {"substance": "L144F SOD1 (from UniProt P00441 8-154) (enzyme)", "values": [{"measurement": "stoichiometry N", "setting": "L144F SOD1 (human) [5]", "result": 2}, {"measurement": "stoichiometry N", "setting": "L144F SOD1 (human) [6]", "result": 2}]}, {"substance": "T54R SOD1 (from UniProt P00441 8-154) (enzyme)", "values": [{"measurement": "stoichiometry N", "setting": "T54R SOD1 (human) [7]", "result": 2}, {"measurement": "stoichiometry N", "setting": "T54R SOD1 (human) [8]", "result": 2}]}, {"substance": "G93D SOD1 (from UniProt P00441 8-154) (enzyme)", "values": [{"measurement": "stoichiometry N", "setting": "G93D SOD1 (human) [9]", "result": 2}, {"measurement": "stoichiometry N", "setting": "G93D SOD1 (human) [10]", "result": 2}]}, {"substance": "I35T SOD1 (from UniProt P00441 8-154) (enzyme)", "values": [{"measurement": "stoichiometry N", "setting": "I35T SOD1 (human) [11]", "result": 2}, {"measurement": "stoichiometry N", "setting": "I35T SOD1 (human) [12]", "result": 2}]}, {"substance": "V87M SOD1 (from UniProt P00441 8-154) (enzyme)", "values": [{"measurement": "stoichiometry N", "setting": "V87M SOD1 (human) [13]", "result": 2}, {"measurement": "stoichiometry N", "setting": "V87M SOD1 (human) [14]", "result": 2}]}, {"substance": "D90A SOD1 (from UniProt P00441 8-154) (enzyme)", "values": [{"measurement": "stoichiometry N", "setting": "D90A SOD1 (human) [15]", "result": 2}, {"measurement": "stoichiometry N", "setting": "D90A SOD1 (human) [16]", "result": 2}]}, {"substance": "G93A SOD1 (from UniProt P00441 8-154) (enzyme)", "values": [{"measurement": "stoichiometry N", "setting": "G93A SOD1 (human) [17]", "result": 2}, {"measurement": "stoichiometry N", "setting": "G93A SOD1 (human) [18]", "result": 2}]}, {"substance": "V97M SOD1 (from UniProt P00441 8-154) (enzyme)", "values": [{"measurement": "stoichiometry N", "setting": "V97M SOD1 (human) [19]", "result": 2}, {"measurement": "stoichiometry N", "setting": "V97M SOD1 (human) [20]", "result": 2}]}, {"substance": "L67V SOD1 (from UniProt P00441 8-154) (enzyme)", "values": [{"measurement": "stoichiometry N", "setting": "L67V SOD1 (human) [21]", "result": 2}, {"measurement": "stoichiometry N", "setting": "L67V SOD1 (human) [22]", "result": 2}]}]}
